# According to US20250262210A1 (TRUSTEES OF COLUMBIA UNIVERSITY IN THE CITY OF NEW YORK, published 2025):
# T1: ZCCHC6 (human, UniProt Q5VYS8 1-1495, limits assumed)
# T1 sequence (looked up): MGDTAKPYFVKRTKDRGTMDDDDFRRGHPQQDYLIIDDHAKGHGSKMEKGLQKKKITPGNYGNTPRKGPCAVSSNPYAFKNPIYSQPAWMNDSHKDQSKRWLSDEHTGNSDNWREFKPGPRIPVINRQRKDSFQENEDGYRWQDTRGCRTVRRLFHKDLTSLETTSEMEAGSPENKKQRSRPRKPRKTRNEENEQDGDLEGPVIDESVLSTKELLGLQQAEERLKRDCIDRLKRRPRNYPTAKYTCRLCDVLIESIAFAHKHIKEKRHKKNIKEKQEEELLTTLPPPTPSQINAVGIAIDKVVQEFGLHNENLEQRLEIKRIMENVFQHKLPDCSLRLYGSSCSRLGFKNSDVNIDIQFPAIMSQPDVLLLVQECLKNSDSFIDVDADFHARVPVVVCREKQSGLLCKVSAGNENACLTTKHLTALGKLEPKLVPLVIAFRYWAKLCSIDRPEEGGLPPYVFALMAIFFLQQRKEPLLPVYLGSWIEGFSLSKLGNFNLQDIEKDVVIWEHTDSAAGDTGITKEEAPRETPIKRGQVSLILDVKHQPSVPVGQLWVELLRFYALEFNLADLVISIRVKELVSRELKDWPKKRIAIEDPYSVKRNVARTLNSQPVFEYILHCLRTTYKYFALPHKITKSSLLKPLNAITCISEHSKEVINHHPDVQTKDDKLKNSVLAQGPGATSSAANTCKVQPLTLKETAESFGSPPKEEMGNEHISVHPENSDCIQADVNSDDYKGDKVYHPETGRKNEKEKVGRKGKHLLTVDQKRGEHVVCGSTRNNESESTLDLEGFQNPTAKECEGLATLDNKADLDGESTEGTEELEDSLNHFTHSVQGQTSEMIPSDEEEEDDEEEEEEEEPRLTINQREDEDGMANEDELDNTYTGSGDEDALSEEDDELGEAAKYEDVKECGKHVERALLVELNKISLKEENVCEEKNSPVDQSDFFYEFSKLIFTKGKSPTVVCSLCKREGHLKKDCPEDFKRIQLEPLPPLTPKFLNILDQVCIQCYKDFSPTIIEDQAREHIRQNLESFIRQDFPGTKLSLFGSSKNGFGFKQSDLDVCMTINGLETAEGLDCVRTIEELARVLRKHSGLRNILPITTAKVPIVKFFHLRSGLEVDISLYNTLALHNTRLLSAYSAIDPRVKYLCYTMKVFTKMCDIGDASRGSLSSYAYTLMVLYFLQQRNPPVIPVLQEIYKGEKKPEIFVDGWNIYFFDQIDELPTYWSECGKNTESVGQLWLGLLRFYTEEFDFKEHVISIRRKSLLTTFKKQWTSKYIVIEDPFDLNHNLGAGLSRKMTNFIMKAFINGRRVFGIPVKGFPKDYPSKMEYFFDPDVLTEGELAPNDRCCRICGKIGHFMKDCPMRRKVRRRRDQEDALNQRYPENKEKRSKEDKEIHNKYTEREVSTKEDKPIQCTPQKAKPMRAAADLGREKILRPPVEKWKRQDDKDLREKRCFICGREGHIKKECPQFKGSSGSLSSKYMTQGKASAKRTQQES
# B1: LZTR1-FLAG (other, human, UniProt Q8N653 1-840, looked up)
# chain: MAGPGSTGGQIGAAALAGGARSKVAPSVDFDHSCSDSVEYLTLNFGPFETVHRWRRLPPCDEFVGARRSKHTVVAYKDAIYVFGGDNGKTMLNDLLRFDVKDCSWCRAFTTGTPPAPRYHHSAVVYGSSMFVFGGYTGDIYSNSNLKNKNDLFEYKFATGQWTEWKIEGRLPVARSAHGATVYSDKLWIFAGYDGNARLNDMWTIGLQDRELTCWEEVAQSGEIPPSCCNFPVAVCRDKMFVFSGQSGAKITNNLFQFEFKDKTWTRIPTEHLLRGSPPPPQRRYGHTMVAFDRHLYVFGGAADNTLPNELHCYDVDFQTWEVVQPSSDSEVGGAEVPERACASEEVPTLTYEERVGFKKSRDVFGLDFGTTSAKQPTQPASELPSGRLFHAAAVISDAMYIFGGTVDNNIRSGEMYRFQFSCYPKCTLHEDYGRLWESRQFCDVEFVLGEKEECVQGHVAIVTARSRWLRRKITQARERLAQKLEQEAAPVPREAPGVAAGGARPPLLHVAIREAEARPFEVLMQFLYTDKIKYPRKGHVEDVLLIMDVYKLALSFQLCRLEQLCRQYIEASVDLQNVLVVCESAARLQLSQLKEHCLNFVVKESHFNQVIMMKEFERLSSPLIVEIVRRKQQPPPRTPLDQPVDIGTSLIQDMKAYLEGAGAEFCDITLLLDGHPRPAHKAILAARSSYFEAMFRSFMPEDGQVNISIGEMVPSRQAFESMLRYIYYGEVNMPPEDSLYLFAAPYYYGFYNNRLQAYCKQNLEMNVTVQNVLQILEAADKTQALDMKRHCLHIIVHQFTKVSKLPTLRSLSQQLLLDIIDSLASHISDKQCAELGADI
# notes: Expressed in HEK 293T, HeLa or U87 cells; used as cell lysate; also called LZTR1 wild type-FLAG; LZTR1 WT; not shown: FLAG tag at the C-terminus
# Molecular target: T1, ZCCHC6
# Test: IP/MS, LZTR1 wild type-FLAG, U87
# Procedure, shortened: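 Read-out: spectral counts from LC-MS/MS (Orbitrap Fusion) after MaxQuant identification. Variable modifications were Met oxidation, protein N-terminal acetylation and N/Q deamidation.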
binder,measurement,value
B1,binding result,binds
